Bridge positions count the residues as written; N and C are the ends. Peptide text beside a SMILES is read from it.
Columns and labels:
Format in all cases: binding
C5 [1] = target: T1, C5 (Homo sapiens, UniProt P01031); test: Monoclonal phage screening ELISA, human C5
Procedure: (§1) For the C5 libraries, a single round of enrichment was performed with either human or rat C5 protein. […] Phage were blocked for 30 minutes. Biotinylated antigen was added to the blocked phage at a concentration of 100 nM and incubated at room temperature with mixing.
(§2) Colonies were picked into a 96-well culture plate containing selective medium 2TY supplemented with 1% Glucose and 100 μg/ml Carbenicillin and was incubated at 37° C. until wells reached mid-log phase of growth prior to addition of M13K07 helper phage. The block was incubated without shaking for 1 hour to achieve infection and phage production using continued culture in selective media supplemented with 50 μg/ml Kanamycin and 100 μg/ml Carbenicillin.
Binding to antigen was assessed by monoclonal phage ELISA, 96-well flat bottom Nunc MaxiSorp plates (Thermofisher) were coated with a 2.5 μg/ml solution of human, mouse, or rat serum albumin, human C5 or mouse C5 diluted with PBS, and left overnight at 4° C. Negative control plate and Anti-myc tag plate were also prepared.
(§3) Monoclonal phage rescue supernatants were blocked with an equal volume of a 2% milk (w/v) in PBS, for serum albumin proteins, or 2% BSA and 2% milk (w/v) in PBS solution. The coating solution was removed from coated Nunc plates and each plate was blocked with 1% BSA in PBS (for C5 libraries) or 1% milk powder (for albumin library). Both phage and Nunc plates were blocked for 1 hour at room temperature. Nunc plates were washed using a 96-well microplate washer (BioTek) with a PBS solution contain 0.1% Tween20 (Sigma Aldrich). 100 of blocked phage solution was added to each well of Nunc MaxiSorp plate and left shaking at room temperature for 1 hour. Plates were washed and dried as previously described. 100 of an Anti-M13-Horse radish peroxidase conjugated antibody (GE Healthcare) diluted (1:5,000) in a 1% BSA or milk solution was added to each well and left shaking at room temperature for 1 hour. Plates were washed again and 50 μL of TMB solution (Merck Millipore) was added to each well. Plates were left shaking for 10 minutes. Absorbance was measured at 630 nm and 490 nm. Binding signals were obtained where Absorbance at 630 nm was >3-times the signal upon irrelevant antigen.
(§4) By monoclonal phage ELISA the following ultralong CDR-H3 sequences were identified as binders (OD>0.2 AU): […]

rat C5 protein = rat C5 protein (Rattus norvegicus, UniProt P08650); test: Monoclonal phage screening ELISA, rat C5
Chain of rat C5 protein (P08650 19-674 limits assumed): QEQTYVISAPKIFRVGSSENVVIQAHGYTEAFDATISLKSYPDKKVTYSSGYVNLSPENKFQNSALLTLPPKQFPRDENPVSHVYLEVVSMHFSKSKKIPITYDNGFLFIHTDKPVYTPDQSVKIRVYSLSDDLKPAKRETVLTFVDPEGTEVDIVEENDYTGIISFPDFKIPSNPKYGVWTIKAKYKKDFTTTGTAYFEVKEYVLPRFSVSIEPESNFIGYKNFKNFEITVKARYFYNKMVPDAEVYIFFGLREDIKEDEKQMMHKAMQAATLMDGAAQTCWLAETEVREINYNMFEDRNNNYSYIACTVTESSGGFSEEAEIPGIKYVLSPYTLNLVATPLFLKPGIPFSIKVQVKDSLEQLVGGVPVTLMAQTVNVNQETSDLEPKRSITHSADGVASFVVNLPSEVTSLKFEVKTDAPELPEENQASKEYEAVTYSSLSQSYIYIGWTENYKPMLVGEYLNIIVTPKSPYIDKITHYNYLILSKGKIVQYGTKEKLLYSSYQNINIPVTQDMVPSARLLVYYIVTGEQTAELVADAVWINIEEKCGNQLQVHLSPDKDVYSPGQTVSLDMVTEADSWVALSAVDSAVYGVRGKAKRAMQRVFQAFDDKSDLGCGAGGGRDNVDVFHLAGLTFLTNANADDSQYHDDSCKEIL
Chain of rat C5 protein (P08650 679-1681 limits assumed): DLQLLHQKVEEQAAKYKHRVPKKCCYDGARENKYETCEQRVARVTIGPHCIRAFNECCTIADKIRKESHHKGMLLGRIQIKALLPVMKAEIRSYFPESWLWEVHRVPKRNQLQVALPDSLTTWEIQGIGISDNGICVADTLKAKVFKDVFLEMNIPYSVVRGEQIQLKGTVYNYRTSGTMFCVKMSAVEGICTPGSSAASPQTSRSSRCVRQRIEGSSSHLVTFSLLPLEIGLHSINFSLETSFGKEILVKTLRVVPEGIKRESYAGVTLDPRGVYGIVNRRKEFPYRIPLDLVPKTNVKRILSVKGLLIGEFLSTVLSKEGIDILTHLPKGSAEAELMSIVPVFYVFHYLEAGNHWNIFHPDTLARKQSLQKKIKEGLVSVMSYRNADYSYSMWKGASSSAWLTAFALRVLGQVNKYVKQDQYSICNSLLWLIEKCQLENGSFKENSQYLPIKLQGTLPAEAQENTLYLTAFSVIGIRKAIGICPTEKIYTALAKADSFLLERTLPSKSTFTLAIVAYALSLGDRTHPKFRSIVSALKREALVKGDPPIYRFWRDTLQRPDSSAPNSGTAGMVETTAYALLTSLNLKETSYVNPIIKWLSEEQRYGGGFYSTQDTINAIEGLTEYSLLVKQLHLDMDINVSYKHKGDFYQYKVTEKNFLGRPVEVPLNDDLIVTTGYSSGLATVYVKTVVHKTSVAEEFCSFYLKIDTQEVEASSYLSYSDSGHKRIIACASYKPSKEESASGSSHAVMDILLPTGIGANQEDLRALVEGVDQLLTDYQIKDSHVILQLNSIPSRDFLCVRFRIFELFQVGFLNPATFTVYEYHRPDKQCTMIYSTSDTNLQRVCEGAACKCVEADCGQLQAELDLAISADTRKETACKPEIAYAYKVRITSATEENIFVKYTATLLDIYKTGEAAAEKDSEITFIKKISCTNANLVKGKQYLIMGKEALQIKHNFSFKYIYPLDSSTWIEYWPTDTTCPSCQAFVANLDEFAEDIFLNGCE
Procedure: as §1, §2
[…] Negative control plate and Anti-myc tag plate were also prepared.
as §3, §4

C5 [2] = target: T1, C5; test: Biacore (SPR) single-cycle kinetics on immobilised C5; conditions: for kd: chemically derived knob domain peptides, n = 1; for kon: read-out: ka
Procedure: Binding to C5 was measured using surface plasmon resonance (SPR) single-cycle kinetics as described below.
Biacore single-cycle kinetics. Using a Biacore 8K (GE Healthcare), C5 was immobilized on a CM5 chip by amine coupling. Flow cells were activated using EDC/NHS (flow rate, 10 μL/min; contact time, 30 s). C5, at 1 μg/mL in pH 4.5 Sodium-acetate buffer, was immobilized on flow cell two only (flow rate, 10 μL/min; contact time, 420 s). Finally, ethanolamine was applied to both flow cells (flow rate, 10 μL/min; contact time, 420 s). A final immobilization level of approximately 2,000 response units was obtained.
Single-cycle kinetics were measured using titrations in HBS-EP buffer. A high flow rate of 40 μL/min was used, with a contact time of 230 s and a dissociation time of 900 s. Binding to the reference surface was subtracted, and the data were fitted to a single-site binding model using Biacore evaluation software.
We measured individual rate constants (kon and koff) and equilibrium dissociation constants (KD) for knob domain peptides binding to C5 by the Biacore single-cycle kinetics method described above.
We used SPR single cycle kinetics to measure binding to human C5 protein.

C5 [3] = target: T1, C5; test: Biacore multi-cycle kinetics on human C5; conditions: for mean stoichiometric ratio: measured Rmax divided by theoretical Rmax, n = 3 experiments; for koff: read-out: mean Koff, multi-cycle kinetics, n = 3 experiments; for kon: read-out: mean Kon, multi-cycle kinetics, n = 3 experiments
Procedure: Binding of knob domain peptides to human C5 was measured by SPR, using a multi-cycle kinetics method as follows:
Kinetics were measured using a Biacore 8K (GE Healthcare) with a CM5 chip, which was prepared as follows: EDC/NHS was mixed at 1:1 ratio (flow rate, 10 μL/min; contact time, 30 seconds), human C5 protein at 1 μg/mL in pH 4.5 sodium-acetate buffer, were injected over flow cell one only (flow rate, 10 μL/min; contact time, 60 seconds). Final immobilization levels in the range of 2000-3000 response units (RU) were obtained, to yield theoretical Rmax values of ˜50-60 RU. Serial dilutions of peptide were prepared in HBS-EP buffer and injected (flow rate, 30 μL/min; contact time, 240 seconds; dissociation time, 6000 seconds). After each injection, the surface was regenerated with two sequential injections of 2M MgCl2 (flow rate, […]; contact time, 30 seconds). Binding to the reference surface was subtracted, and the data were fitted to a single site binding model, using Biacore evaluation software.

[4] = anti-C5 ultralong CDR-H3, binder = OD>0.2 AU
[5] = knob domain of the anti-C5 ultralong CDR-H3

T1 sequence (P01031 19-1676): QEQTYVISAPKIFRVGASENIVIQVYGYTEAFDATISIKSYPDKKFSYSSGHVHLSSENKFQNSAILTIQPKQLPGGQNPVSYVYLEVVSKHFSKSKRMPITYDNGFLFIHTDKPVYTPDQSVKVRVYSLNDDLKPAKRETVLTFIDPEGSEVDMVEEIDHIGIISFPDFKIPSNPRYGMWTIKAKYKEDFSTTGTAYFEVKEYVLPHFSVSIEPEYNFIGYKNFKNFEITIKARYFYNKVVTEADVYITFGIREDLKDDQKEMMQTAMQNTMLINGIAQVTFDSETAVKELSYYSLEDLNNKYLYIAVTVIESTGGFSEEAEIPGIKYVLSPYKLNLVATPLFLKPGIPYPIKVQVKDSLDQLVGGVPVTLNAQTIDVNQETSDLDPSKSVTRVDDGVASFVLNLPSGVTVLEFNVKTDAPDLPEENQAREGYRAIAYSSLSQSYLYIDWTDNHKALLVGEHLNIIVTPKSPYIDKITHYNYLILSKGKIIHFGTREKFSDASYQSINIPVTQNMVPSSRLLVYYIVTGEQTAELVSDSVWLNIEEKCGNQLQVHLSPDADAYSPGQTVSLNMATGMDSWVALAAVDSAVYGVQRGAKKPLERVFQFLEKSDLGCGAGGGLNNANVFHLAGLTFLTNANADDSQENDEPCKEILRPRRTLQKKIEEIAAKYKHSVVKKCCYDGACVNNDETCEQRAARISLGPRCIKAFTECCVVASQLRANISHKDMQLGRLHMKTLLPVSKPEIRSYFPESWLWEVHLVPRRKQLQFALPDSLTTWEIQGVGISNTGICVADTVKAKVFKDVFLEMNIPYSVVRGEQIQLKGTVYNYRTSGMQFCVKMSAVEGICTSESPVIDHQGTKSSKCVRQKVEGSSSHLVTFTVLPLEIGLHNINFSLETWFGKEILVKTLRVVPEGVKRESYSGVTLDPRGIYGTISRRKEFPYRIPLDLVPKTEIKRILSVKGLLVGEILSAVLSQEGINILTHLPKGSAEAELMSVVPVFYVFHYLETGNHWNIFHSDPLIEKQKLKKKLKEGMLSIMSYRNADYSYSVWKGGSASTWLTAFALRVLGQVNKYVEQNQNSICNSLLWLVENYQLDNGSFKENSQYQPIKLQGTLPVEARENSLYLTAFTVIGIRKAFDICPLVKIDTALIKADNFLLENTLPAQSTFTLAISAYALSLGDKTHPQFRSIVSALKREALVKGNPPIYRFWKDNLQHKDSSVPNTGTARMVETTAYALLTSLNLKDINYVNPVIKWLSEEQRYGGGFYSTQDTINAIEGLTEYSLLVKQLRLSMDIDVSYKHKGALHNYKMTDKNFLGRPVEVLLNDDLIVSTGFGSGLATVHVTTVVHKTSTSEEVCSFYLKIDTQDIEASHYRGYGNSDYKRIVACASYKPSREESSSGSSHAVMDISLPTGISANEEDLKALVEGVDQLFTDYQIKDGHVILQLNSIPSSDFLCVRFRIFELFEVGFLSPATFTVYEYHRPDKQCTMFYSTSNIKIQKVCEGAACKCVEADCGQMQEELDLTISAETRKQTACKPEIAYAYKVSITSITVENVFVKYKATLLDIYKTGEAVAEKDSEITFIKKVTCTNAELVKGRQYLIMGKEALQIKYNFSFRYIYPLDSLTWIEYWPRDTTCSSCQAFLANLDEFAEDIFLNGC

Compound	Specificity (C5 [1]; [4])	Specificity (rat C5 protein; [4])	Specificity (C5 [1]; [5])	Specificity (rat C5 protein; [5])	also measured
558 (TTVHQKTKKSCPLGYAINDRCDDLKTCGPDECCLNGVVNAYGICEYEGESATHTYELYVE; Anti-C5 ultralong CDR-H3) [compound 558]	Human and Rat	Human and Rat			
596 (TCPRGYHYNDRCEFFNTCRVEECCLNGVVNTYGICEYEGGSAT; Anti-C5 ultralong CDR-H3 knob domain) [compound 596]			Human and Rat	Human and Rat	
CSCC[C@@H]1NC(=O)[C@@H]2CCCN2C(=O)[C@@H](NC(=O)[C@@H]2CSSC[C@H](NC(=O)[C@@H](N)CO)C(=O)N3CCC[C@H]3C(=O)N[C@@H](CC(=O)O)C(=O)NCC(=O)N[C@@H](Cc3ccccc3)C(=O)N[C@@H](CO)C(=O)N[C@@H](Cc3ccc(O)cc3)C(=O)N[C@@H](CCCNC(=N)N)C(=O)N[C@@H](CO)C(=O)N[C@@H](Cc3c[nH]c4ccccc34)C(=O)N[C@@H](CC(=O)O)C(=O)N[C@@H](CC(=O)O)C(=O)N[C@@H](Cc3ccccc3)C(=O)N2)CSSC[C@@H](C(=O)N[C@@H](CC(C)C)C(=O)N[C@@H](C)C(=O)N2CCC[C@H]2C(=O)N[C@@H](CCCNC(=N)N)C(=O)N[C@@H](CC(N)=O)C(=O)O)NC(=O)[C@H](CCCNC(=N)N)NC(=O)CNC(=O)[C@H](C(C)C)NC1=O (H-SCPDGFSYRSWDDFCCPMVGRCLAPRN-OH; disulfide 2-15, 16-22; N-terminus assumed)					Kd (C5 [2]): 6.17 nM; kd (C5 [2]): 0.00723 s⁻¹; kon (C5 [2]): 1.17e+06 M⁻¹ s⁻¹; fold more potent than K149B (C5 [2]; site directed disulphide forms of K149): 41 fold; Kd (C5 [3]): 7.31 nM; mean stoichiometric ratio (C5 [3]; listed as K149chemSD-A): 0.82; koff (C5 [3]): 0.00484 s⁻¹; kon (C5 [3]): 713000 M⁻¹ s⁻¹
598 (SCPDGYGYGDGYCYDSGCSASDCYGVDALYSYGHCGCSIYTERPR; Anti-C5 ultralong CDR-H3 knob domain) [compound 598]			Human and Rat	Human and Rat	
555 (TTVHQKTKKTCPRGYHYNDRCEFFNTCRVEECCLNGVVNTYGICEYEGGSATYTYEWYVD; Anti-C5 ultralong CDR-H3) [compound 555]	Human and Rat	Human and Rat			
595 (TCPSGCSWFSGCWDTYRCGPSVCCRDGRYGCAAIICRDT; Anti-C5 ultralong CDR-H3 knob domain) [compound 595]			Human and Rat	Human and Rat	
599 (SCPLGYAINDRCDDLKTCGPDECCLNGVVNAYGICEYEGESAT; Anti-C5 ultralong CDR-H3 knob domain) [compound 599]			Human and Rat	Human and Rat	
552 (TTVHQRTKEERTCPSGCSWFSGCWDTYRCGPSVCCRDGRYGCAAIICRDTYEWYVD; Anti-C5 ultralong CDR-H3) [compound 552]	Human and Rat	Human and Rat			
554 (TTVHQKTKKTCPRGYHYNDRCDFFNTCRVEECCLNGVVNTYGICEYEGGSATYTYEWYVD; Anti-C5 ultralong CDR-H3) [compound 554]	Human and Rat	Human and Rat			
553 (TTVHQKTKKTCPRGYHYNDRCEFFNTCRVEECCLNGVVNTYGICEYEGGSATYTYEWYVD; Anti-C5 ultralong CDR-H3) [compound 553]	Human and Rat	Human and Rat			
597 (TCPRGYHYNDRCDFFNTCRVEECCLNGVVNTYGICEYEGGSAT; Anti-C5 ultralong CDR-H3 knob domain) [compound 597]			Human and Rat	Human and Rat	
557 (TTVHLKTKKSCPLGYAINDRCDDLKTCGPDECCLNGVVNAYGICEYEGESATHTYEWYVD; Anti-C5 ultralong CDR-H3) [compound 557]	Human and Rat	Human and Rat			
551 (TTVHQRTKKTCPLGYDLNYRCDHFNTCRVEECCKNGVVNAYGICEYAGGSATYTYEWYVD; Anti-C5 ultralong CDR-H3) [compound 551]	Human and Rat	Human and Rat			
CSCC[C@@H]1NC(=O)[C@@H]2CCCN2C(=O)[C@@H]2CSSC[C@H](NC(=O)[C@@H](N)CO)C(=O)N3CCC[C@H]3C(=O)N[C@@H](CC(=O)O)C(=O)NCC(=O)N[C@@H](Cc3ccccc3)C(=O)N[C@@H](CO)C(=O)N[C@@H](Cc3ccc(O)cc3)C(=O)N[C@@H](CCCNC(=N)N)C(=O)N[C@@H](CO)C(=O)N[C@@H](Cc3c[nH]c4ccccc34)C(=O)N[C@@H](CC(=O)O)C(=O)N[C@@H](CC(=O)O)C(=O)N[C@@H](Cc3ccccc3)C(=O)N[C@@H](CSSC[C@@H](C(=O)N[C@@H](CC(C)C)C(=O)N[C@@H](C)C(=O)N3CCC[C@H]3C(=O)N[C@@H](CCCNC(=N)N)C(=O)N[C@@H](CC(N)=O)C(=O)O)NC(=O)[C@H](CCCNC(=N)N)NC(=O)CNC(=O)[C@H](C(C)C)NC1=O)C(=O)N2 [K149B] (H-SCPDGFSYRSWDDFCCPMVGRCLAPRN-OH; disulfide 2-16, 15-22; N-terminus assumed)					Kd (C5 [2]): 246 nM; kd (C5 [2]): 0.00732 s⁻¹; kon (C5 [2]): 29700 M⁻¹ s⁻¹; Kd (C5 [3]): 269 nM; fold lower affinity (relative to K149chemSD-A) (C5 [3]): approximately 35 fold; mean stoichiometric ratio (C5 [3]): 0.81; koff (C5 [3]): 0.00417 s⁻¹; kon (C5 [3]): 15600 M⁻¹ s⁻¹
594 (TCPLGYDLNYRCDHFNTCRVEECCKNGVVNAYGICEYAGGSAT; Anti-C5 ultralong CDR-H3 knob domain) [compound 594]			Human and Rat	Human and Rat	
